Assay [1] concerns the target KirBac1.3-GIRK1 chimeric protein (GIRK chimera) in MSP1E3 nanodiscs (mouse | Burkholderia xenovorans) (UniProt P63250). As to the kind of experiment: NMR titration; 1H-13C HMQC (methyl-TROSY) of 11 μM Gα[ILVA]βγ with or without 22 μM (2 eq.) GIRK chimera-nanodiscs; 20 °C; 20 mM HEPES-NaOH pH 7.0, 150 mM KCl, 0.5 mM GDP, 0.1 mM TCEP; signal intensity reductions; apparent Kd estimated.

Assay [2] addresses NLuc-tagged GIRK (GIRK1/GIRK2-Luc) (human) (UniProt P48549). As to the kind of experiment: FRET or BRET; agonist-induced BRET in living HEK293T cells between Venus-Gβγ (acceptor) and GRK-Luc or GIRK-Luc (donor); co-expressed GPCR (DOR or D2R), PTX S1 and a PTX-insensitive Gα (C351A); agonist 10 μM, then antagonist; PBS with 0.5 mM MgCl2 and 0.1% glucose; read 3 min after ligand. Background: In BRET a luciferase serves as donor, and the signal depends on an acceptor being close.

In assay [3] the target is T1, Gβγ dimer (human Gβ1 and His6-tagged human Gγ2 (C68S)) (human, UniProt P62873 1-340; P59768 1-71, C68S).
T1 construct: G protein β1 subunit (Gβ1), human; G protein γ2 subunit (Gγ2), human; also called [non-labeled]βγ
As to the kind of experiment: SEC; purified Gα and Gβγ mixed with a slight excess of Gβγ; Gαβγ isolated by gel filtration on Superdex 200. The conditions noted are these: both partners purified. In general terms: In gel filtration, larger molecules generally elute earlier.

Chain of NLuc-tagged GIRK (GIRK1/GIRK2-Luc) (human) (P48549 whole entry, chain 1 of 2): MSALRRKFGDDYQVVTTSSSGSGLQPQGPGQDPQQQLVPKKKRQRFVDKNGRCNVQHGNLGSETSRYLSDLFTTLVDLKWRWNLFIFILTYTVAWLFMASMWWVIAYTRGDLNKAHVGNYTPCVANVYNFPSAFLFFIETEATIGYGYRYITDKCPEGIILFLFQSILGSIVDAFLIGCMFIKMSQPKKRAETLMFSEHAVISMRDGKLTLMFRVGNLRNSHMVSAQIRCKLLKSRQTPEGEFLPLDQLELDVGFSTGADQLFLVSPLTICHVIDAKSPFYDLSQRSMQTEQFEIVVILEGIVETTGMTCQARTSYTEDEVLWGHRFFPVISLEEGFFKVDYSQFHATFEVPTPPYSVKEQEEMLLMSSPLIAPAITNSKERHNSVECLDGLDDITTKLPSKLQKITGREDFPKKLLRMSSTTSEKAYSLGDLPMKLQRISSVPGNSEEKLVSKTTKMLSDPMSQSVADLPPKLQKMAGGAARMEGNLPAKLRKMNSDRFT
Chain of NLuc-tagged GIRK (GIRK1/GIRK2-Luc) (human) (P48051 whole entry, chain 2 of 2, further chain): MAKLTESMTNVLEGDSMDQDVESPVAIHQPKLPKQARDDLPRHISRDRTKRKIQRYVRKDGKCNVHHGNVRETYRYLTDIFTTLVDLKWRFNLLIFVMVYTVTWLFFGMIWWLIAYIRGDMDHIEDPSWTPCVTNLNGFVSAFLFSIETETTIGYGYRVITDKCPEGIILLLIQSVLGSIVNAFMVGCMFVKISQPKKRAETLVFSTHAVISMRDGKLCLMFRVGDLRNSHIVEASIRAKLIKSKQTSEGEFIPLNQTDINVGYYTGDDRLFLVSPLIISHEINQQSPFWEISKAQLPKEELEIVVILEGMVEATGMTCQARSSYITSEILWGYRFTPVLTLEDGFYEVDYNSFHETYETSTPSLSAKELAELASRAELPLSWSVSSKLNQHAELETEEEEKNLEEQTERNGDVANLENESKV

As to “Gαi3βγ heterotrimer (Gαi3[ILVA] complexed with non-labeled Gβ1γ2(C68S)), GDP-bound (from UniProt P08754 1-354; P62873 1-340; P59768 1-71)”, the Kd in assay [1] was > 200 µM.
For “Venus-tagged Gβγ (Venus 156–239-Gβ1 with Venus 1–155-Gγ2) (from UniProt P62873 1-340; P59768 1-71) (complex)”, in assay [2], the specificity factor (ΔBRET GIRK/ΔBRET GRK), with D2R and Gαi3 turned out to be 0.303; the specificity factor (ΔBRET GIRK/ΔBRET GRK), with D2R and Gαiqi was 0.157; the specificity factor (ΔBRET GIRK/ΔBRET GRK), with D2R and Gαqi5 stood at 0.091; the specificity factor (ΔBRET GIRK/ΔBRET GRK), with D2R and Gαqiqi5 was 0.236. Moreover, in assay [2], the specificity factor (ΔBRET GIRK/ΔBRET GRK), with DOR and Gαi3 worked out at 0.286; the specificity factor (ΔBRET GIRK/ΔBRET GRK), with DOR and Gαiqi was determined as 0.148; the specificity factor (ΔBRET GIRK/ΔBRET GRK), with Gαi3-q(αA) was determined as 0.159; the specificity factor (ΔBRET GIRK/ΔBRET GRK), with Gαi3-q(αB) worked out at 0.248. Besides, in assay [2], the specificity factor (ΔBRET GIRK/ΔBRET GRK), with Gαi3-q(αE) stood at 0.249.

B1: Gαiqi (chimeric Gα: GTPase domain of Gαi3, helical domain of Gαq), purified (other, human, UniProt P08754 1-62, looked up)
chain: MGCTLSAEDKAAVERSKMIDRNLREDGEKAAKEVKLLLLGAGESGKSTIVKQMKIIHEDGYSDEDKRGFTKLVYQNIFTAMQAMIRAMDTLKIPYKYEHNKAHAQLVREVDVEKVSAFENPYVDAIKSLWNDPGIQECYDRRREYQLSDSTKYYLNDLDRVADPAYLPTQQDVLRTRVKTTGIVETHFTFKDLYFKMFDVGGQRSERKKWIHCFEGVTAIIFCVALSDYDLVLAEDEEMNRMHESMKLFDSICNNKWFTETSIILFLNKKDLFEEKIKRSPLTICYPEYTGSNTYEEAAAYIQCQFEDLNRRKDTKEIYTHFTCATDTKNVQFVFDAVTDVIIKNNLKECGLY
notes: Gαi3, human, GTPase domain residues 1-62; Gαq, human, helical domain residues 69-180; Gαi3, human, GTPase domain residues 176-354; also called Gαiqi[ILVA]; source: E. coli BL21-CodonPlus (DE3)-RP, purified in the same way as the wild-type Gαi3; not shown: His10, N-terminal, cleaved
Consider B1, for which the binding result in assay [3] is listed as “binds”.

(Values after PMC6494913 (Nature Communications, 2019).)
